Values of other authors in paper PMC7920998.

System: Glu122
Test: kinetics
Conditions: enzyme reacting with O2 (non-native substrate); further details not given

Substance: Cytochrome c-dependent nitric oxide reductase (cNOR, PdNOR) (Paracoccus denitrificans)
- pKa: ~ 6.6
